Results taken from the DeepSol protein solubility set.

assay: soluble on expression in E. coli; label from the status in PepcDB or PDB records

| Sequence | soluble on expression in E. coli |
| --- | --- |
| MPEYKAPLRDMRFLIDEVFDFHGRYQALGASDATPDMVAAILDEGSKFCEQVLAPLNRSGDEEGCHFDNGVVTTPKGFKEAYAQYVEGGWNGVASDPAYGGQGLPHSLGLLLSEMIGASNVSWGMYPGLTRGAMSAIHAHGSQAQKDLYLARMTAGTWTGTMCLTEPHCGTDLGIIKTRAVPNADGSHAISGTKIFISAGEHDLSENIVHLVLAKLPDAPAGTKGISLFIVPKFLPDAEGNVGARNAVSCGSIEHKMGIKASATCVMNFDGATGYLIGEPNKGLHCMFTMMNHARLGTGMQGLCLGETSYQGAVRYARERLQMRSLTGPKAPDKPADPIIVHPDVRRMLLTMKAFNEGNRALAYFTAQLLDTEHLSQDAAERERAADLLAFLTPICKAFMTETGQEVTNLGMQVYGGHGYIREWGMEQLVRDCRIAQIYEGTNGIQALDLLGRKVLGSQGKLLRGFTKLVHQLCQAQAEHPQLKGQVAQLAALNAQWGELTQQVGLAAMKNADEVGAASVDYLMFSGYVTLAYFWLRIALVAREKLDAGSGEAAFYEAKLATADFYFSR | not soluble |
| MPFHIGSGCLPAIISNRRIYRIAWSDTPPEMSSWEKMKEFFCSTHQAEALECIWTICHPPAGTTREDVVSRFELLRTLAYDGWEENIHSGLHGENYFCILDEDSQEILSVTLDDVGNYTVNCQGYSETHHLTMATEPGVERTDITYNLTSDIDAAAYLEELKQNPIINNKIMNPVGQCESLMTPVSNFMNEKGFDNIRYRGIFIWDKPTEEIPTNHFAVVGNKEGKDYVFDVSAHQFENRGMSNLNGPLILSADEWVCKYRMATRRKLIYYTDFSNSSIAANAYDALPRELESESMAGKVFVTSPRWFNTFKKQKYSLIGKM | not soluble |
| MPFHLALGLSNCEQIYEPGGTIEGYVTFDLRESVKVKAIRISAEGLATTKWLLSESSKSSHGRSREVSYSAKVTYLDEEQMVWKPSEGHSKSSVFPGIHVYPFKFQIPIGVPPSFEGDHGNIRYHMKATVERPWKTNRSVTRYLTILPPKDLNKEVLASEETSSWKSKKIRIPKKGYVPGETISIETNIDNMSSRPILKTECYLIQQCRFLAYRYGISGPTDGRRASSLSENDRYLSRKRDEIKIVSVIHEMHIEPRTEHKAKMRLKIPCTCPTFDSTLIHVEYFVVVKLHVKCRMRNTVKAECPIIIGSKPLADEHVDPRTPTYQEVATFSALTHRSMMSVDEKLTPKYVYYPKYGKSRDDEADEPPSLTDLQLPPIDSLSDDD | not soluble |
| MPFKLSPDCIVLAEPEKLHYPGDTVSGHIVLKFEKFSTCRAITLTVKGKAETGWDNVTKVGQWTYFNESGVLWKAEMSENRIEPGTHRIPFDYTVPENIPQSFEGPFGFIRFYIKVHMDRPHALDQCVKKEFLVTQKPTVVSKKHLGPEHIIRYCQKLNCNRGEIYFEAQLSNRIIFFDDPISLIIKIKNCSSRTIKKISLEAFQRIEYYSTTSACRKTHSVLIGKTGKSELKIRNDEIAISTFSMKFKEPATPSFASELIQVSYVLLVNLFTDGFWAAPLVFPVEFEVGKKSDVGTEDEETCDGLINFDED | not soluble |
| MPGLEKTRIVDPILTNVAIGYKNAEYVGESLFPVVPVDKEQGKIPKWGAEAFRIYNTRRQIRSKTNRIEMDATTVPYSLEEEALEAPIDDRELEEAAEVLKLEMSRTKMLTDNIRLKMEKDQADVAQNVANYSPGHVEALSGTDKFSDPASKPIDVIGDARATVRSKIGIYPNVLLMGASVYEVLKNHSAIIDKIKYSQKGIATPTCSQKSST | not soluble |
| MPGLLLCEPTELYNILNQATKLSRLTDPNYLCLLDVRSKWEYDESHVITALRVKKKNNEYLLPESVDLECVKYCVVYDNNSSTLEILLKDDDDDSDSDGDGKDLVPQAAIEYGRILTRLTHHPVYILKGGYERFSGTYHFLRTQKIIWMPQELDAFQPYPIEIVPGKVFVGNFSQACDPKIQKDLKIKAHVNVSMDTGPFFAGDADKLLHIRIEDSPEAQILPFLRHMCHFIEIHHHLGSVILIFSTQGISRSCAAIIAYLMHSNEQTLQRSWAYVKKCKNNMCPNRGLVSQLLEWEKTILGDSITNIMDPLY | soluble |
| MPHLALLISKGAIMDRIIQSPGKYIQGADVINRLGEYLKPLAERWLVVGDKFVLGFAQSTVEKSFKDAGLVVEIAPFGGECSQNEIDRLRGIAETAQCGAILGIGGGKTLDTAKALAHFMGVPVAIAPTIASTDAPCSALSVIYTDEGEFDRYLLLPNNPNMVIVDTKIVAGAPARLLAAGIGDALATWFEARACSRSGATTMAGGKCTQAALALAELCYNTLLEEGEKAMLAAEQHVVTPALERVIEANTYLSGVGFESGGLAAAHAVHNGLTAIPDAHHYYHGEKVAFGTLTQLVLENAPVEEIETVAALSHAVGLPITLAQLDIKEDVPAKMRIVAEAACAEGETIHNMPGGATPDQVYAALLVADQYGQRFLQEWE | not soluble |
| MPIEIERRFLIGNDNWRQYADEPLLLRQGYLSVEKERTVRVRIAGKQAWLTLKGYISEISRSEFEYEIPLADAEKMMETMCPFKMEKWRYPVRWGGSLFEIDVFLGDNAPLVVAEIELPDENADFDRPDWLGREITADGMFTNAYLSRHPFSSWKNAV | not soluble |
| MPIIASESSHESIPQDFMDAVESMHKAQLRPEISLGTIRPPQRLAPFSHAVGLEVSGTLSDDSQGDAFGRLILLHDPTSDESWDGSMRLVAYIQADMDASVANDPLLPDVAWQWLTEALDKTHADHTNLGGTVTATASVRFGEIGGPPRAYQVEMRASWTATAIDLAPHVSAFAQVLANVAGLSPEGTTSISR | not soluble |
| MPILFDCNAIASQVLKDEASALLESVGQFQKPNDLEAIVKLILKSQENGGKLVIVGVGKSALVAQKIVASMLSTGNRSAFLHPTEAMHGDLGMVEKNDVVLMISYGGESLELLNLVSHLKRLSHKIITFTKSPNSSLSKLGDYYLSLKIQKEACPINTAPTTSTTLTLALGDVLMACLMRAKNFSQEDFASFHPGGLLGKKLFVKVKDLLQTTNLPLIAPSTSFKDALIEMSEKRLGSAILVNEANELVGVLSDGDVRRALLKGVSLKSEVRHFATLKPKSFKNLDALLLEALEFLERHKIQLLVCVDDHNKVLGVLHLHQLLELGLKA | not soluble |
| MPINGIKIKNSSGEEVYVLKEKGSVVNFGREKKVCHITFDPHAARVSRIHASIEWGDEGLFFTDKSKEGTEINGTRLKQSSQELHEGVYQLAIGGISMTLEVDGDELEETVIDSPQPDESSTVPETVYEESRYSNSSIKEMPAVEVTDDE | not soluble |
| MPKASLIIRERGLPKREVLLSPDRQWTIGRQLDCSIRLTDAYVSRLHAVINAFLFRGQPLYFIRDAHSRNGTFLNGFPLQHSTLLHHEDVIGVGTTLLVFYYPDMFREISLDECPLEHHHHHH | soluble |
| MPKDKKKDEVTEVEHVDRNISSFSQISHLIDAEIITRLTLSHNKLTSVPPNIADLVSLQSLNLWNNQIEDLPPSISSLPKLRILNVGMNKLSILPRGFGSFPELEILDLTYNNLSERSLPGNFFFMQTLRALYLGDNDFEMLPGDVENLTNLQILVLRENDLLTLPKELGKLTRLRELHIQGNRLAMIPPELGNLELVGSKQVLRLEHNPFIPRIEEQFEANGAAGVWAHIRTDDYRYFFGRQEPSSTPVPPKRNKEKKVSRKGIQQA | not soluble |
| MPKGSGKVIAQNKKAFHDYFIEETYEAGLVLQGTEIKSIRAGRVNLKDAFARVHNGEVWVHNMHISTYEQGNRFNHDPLRTRKLLLHKKEIEKLAGASKETGYALVPVRIYLKNGFAKMALGLAKGKKQYDKRHDLKEKEAKREIARAFRDRQKM | not soluble |
| MPKKEKMAKTPLSDEKQLLLFQQKLLAEEEMAKKKERLLSQFLKDKLAKEEHNSALNLNKINTQWRTVLREVKTRELHKDIEILSQTFERVVDCKDNVIKSLAKDLSEAEEQYAHALRSHLHNVDQLLALQRHRLSLLEESYNMELEALTKEFETERKTIIDQHEKEIHYLQDIFMAMEQNYIDSEYESKLEFQSMWNDLKNMNLEEKHFLRLHLENRVEDLWRKFQDVLKNYTDATEDRKAAFETLQVKDEKSSKEIEVQMKKIQKLQDAITISKGKIMIHSRESEDENRYIRNDKELVLVQLRKLKAQRTQARAASQKNLVRLTLESNATLKALRKIVDKGEKILKLAEICRKFETEEEKVLPFYSSVLTPKEQEGIQKNNLEELTEELTKVMVDYIGMENFWKRYNKVKLEQLSLQHRRAQLLDINGKLREMLKQYLDGISVSDEVLSQLNPLFIVNYQSNLLQPLSIRIAHPGDKQHPTT | soluble |
| MPKNKGKGGKNRRRGKNDSEGDKRELVFKEEGQEYGQVQRMLGNGRLDAYCFDGQKRLCHIRGKMRKKVWVNPGDIVLVSLRDFQDSKGDIILKYTPDEARALKSKGEIPETTKINE | soluble |
| MPLEAGLLEILACPACHAPLEERDAELICTGQDCGLAYPVRDGIPVLLVDEARRPEAAALEHHHHHH | not soluble |
| MPLEASELKPTAGPLEASELKPTAGPLEASELKPTAGPLEASELKPTAGPLEASELKPTAGPLEASELKPTAGPLEASELKPTAGMPSVQQDITHPKELLISTNWLNRKDVPFMNNQEQQIQNVLNTLRDPDTIRTRSHRILNLAKQNRLEHFSLNPERMTTTASYIVDIITSRYPELDIPYHSRWRHFEMDGLPRIHNLRKQLDPISPSEWGKILYELVIISVFLDAGAGPLWRYKEALTEKEYSRSEGLALASLYLYESGAFSADPTNPFRVDAERLLDFKETDLIKGFQVSSTNLLEGIPGRVSLLNRLGEIIHRKEHCFNRRKRLGEFYTYVESLQDNKILPTTKLFEAVLETFNDIWPVRLIYHGVSLGDVWIHSALKTNEAGSEYIPFHKLSQWLTYSLVEPLEQTGIDIADLDVLTGLPEYRNGGLLIDTELLKVRNNKILEQPQDPGSEPIVEWRALTVALLDELALLIRQQLNMNAESLPLAKILQGGTWEAGRQIAQKKRINGTPPIEIISDGTIFLEHHHHHH | not soluble |
| MPLKLTTYYQGSEIPDFPGTNTFHSKELFQIYEETPGYTPLLIMASEDGKPVARLLAAIRKSIRMFPPAFIKRCEIYGTGEYLTAEADKERIFGEMLEHLTTEALRNSFLIEFRNLENAMFGYKYFRSNRYFPVNWLRVRNSLHGIENAEQRFSPSRIRQIKKGLKNGAKVDEARTVEEIREFSNMLRHLYSSRIRKHFPNIIFFQHMDTRLIHSRQAKIFIVRYKDKIIGGSACIYSGNDAYLWFSGGMRKTYALQYPGILAVWKALQDAHQNGFRHMEFMDAGLPFKKHGYRDFVLRFGGKQSSTRRWFRFRWQWLNDLLIKIYV | not soluble |
| MPLMPQPTLMPLLQSPSPQHQHQQQQQHRAIGYPQRTLLPQQKQPQQQQPLAYLTSNFNPQQSSVASFNSSPAFTTISDFDQDFDQDYSNCPSLTASPVSTYSLPAYSSTSQQGSSLSAFDSIPNTTTVPRAAQGAAEPLFNLWADPMQTETWLQPADQLTSKSAGRYGHHRESSLSSLGSAGPASPYSNNTSNPQIAVTDFNDFSGFEDLNYHLVPSKASATLHPSFPGYANSNAVPINGYSRAPAVSKQNNNKSFRQEQSVGSNKPRPAPVASSIMSDSSATPAGEAEVAGRQKNGESQENRDLPDRDQSLPFDDVAINNNAPPKFDRTLTDIMNDELYHPDLVITTSAPAPQQTLTTSNNNFNKVVETANQHLSAMQSPASSNSSPFRQGSPHSATLHDFSSLNMASPQVRLGSAQQMRENSKAVQDAAWQQSLARHNQDMTPKTISPKDALLDYHEPEGESNFPLFPQPDNHGFNSDAMSKALSHQSLDGLPNLGDMSTFNFNFSPSNLDSMPTFNGLQQLPQTLQQYSFVNQPRQPSTVPSLATSRMSSAETGITDSPRSNAVQRPVDTRAEGGTYTCTYHGCPLRFDTPQLLQKHKREGHRQAHGLNSRQPNGMTSTRVDTQAGPHRCERINPSTGKPCNQIFSRPYDLTRHEDTIHNARKKKVRCEICTDEKTFSRADALTRHFRVCHPDVPFNGGKQRKARAGRSG | not soluble |
